Assays:
[1] = target: T1, HIV-1/IIIB (HXBc2) gp120 pre-incubated with soluble CD4 (HIV-1); assay: cell-surface binding of 125I-gp120 with sCD4 to 293T cells transfected with CCR5
T1 construct: also called HXB/CD4; HIXB/CD4

[2] = target: T1, HIV-1/IIIB (HXBc2) gp120 pre-incubated …; assay: 125I-gp120 binding to transfected 293T cells, with sCD4

B1: human CCR5 (receptor)
chain: not shown
notes: whole, on cells
[1]
  binding result: no binding

B2: human CXCR4 (receptor)
chain: MEGISIYTSDNYTEEMGSGDYDSMKEPCFREENANFNKIFLPTIYSIIFLTGIVGNGLVILVMGYQKKLRSMTDKYRLHLSVADLLFVITLPFWAVDAVANWYFGNFLCKAVHVIYTVNLYSSVLILAFISLDRYLAIVHATNSQRPRKLLAEKVVYVGVWIPALLLTIPDFIFANVSEADDRYICDRFYPNDLWVVVFQFQHIMVGLILPGIVILSCYCIIISKLSHSKGHQKRKALKTTVILILAFFACWLPYYIGISIDSFILLEIIKQGCEFENTVHKWISITEALAFFHCCLNPILYAFLGAKFKTSAQHALTSVSRGSSLKILSKGKRGGHSSVSTESESSSFHSS
notes: whole, on cells
[2]
  binding result: binds

Source: patent publication US20030091594A1 (University of Pennsylvania, published 2003)
